Experimental findings from US7329737 (DYAX, dated 2008) are described below.

Experiment [1] deals with Human Tissue Kallikrein 2 (hK2) (human, UniProt P20151 25-261). Description: protease inhibition assay, Fab up to 1 µM.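 Also: protease and Fab preincubated 1 h at room temperature, then substrate added, fluorescence plate-reader monitoring of substrate hydrolysis rate.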
Description: (§1) Selected antibodies were tested for their ability to inhibit other proteases.
(§2) Assays were performed in black, 96 well, round bottomed microplates in a total volume of 100 μL. Enzyme and Fab inhibitor were incubated in the dark at room temperature for 1 hour prior to the addition of the indicated amount of substrate. The rate of enzymatic substrate hydrolysis was then monitored using the Spectramax Gemini XS fluorescence plate reader using the wavelengths listed in Table 3.
In a further experiment the target is T1, Human trypsin (human, UniProt P07477 24-247).
T1 construct: also called Human Pancreatic Trypsin
Nature of the experiment: protease inhibition assay, Fab up to 1 µM.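 Also: protease and Fab preincubated 1 h at room temperature, then substrate added, fluorescence plate-reader monitoring of substrate hydrolysis rate.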

The target in experiment [2] is Human Tissue Kallikrein 4 (hK4) (human, UniProt Q9Y5K2 31-254). Nature of the experiment: protease inhibition assay, Fab up to 1 µM.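 Also: protease and Fab preincubated 1 h at room temperature, then substrate added, fluorescence plate-reader monitoring of substrate hydrolysis rate.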
Chain of Human Tissue Kallikrein 4 (hK4) (Q9Y5K2 31-254 limits assumed): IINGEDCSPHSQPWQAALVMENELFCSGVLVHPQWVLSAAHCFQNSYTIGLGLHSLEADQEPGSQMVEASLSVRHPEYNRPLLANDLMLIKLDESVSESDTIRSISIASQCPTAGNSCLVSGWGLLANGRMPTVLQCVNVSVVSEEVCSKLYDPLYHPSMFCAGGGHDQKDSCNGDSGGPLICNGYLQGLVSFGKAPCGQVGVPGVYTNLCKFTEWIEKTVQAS
Description: as §1, §2
Experiment [3] concerns the target Human activated protein kinase C (human). Description: protease inhibition assay, Fab up to 1 µM.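 Also: protease and Fab preincubated 1 h at room temperature, then substrate added, fluorescence plate-reader monitoring of substrate hydrolysis rate.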
Description: as §1, §2
A further experiment concerns the target Human chymotrypsin (human, UniProt P17538 19-263). Description: protease inhibition assay, Fab up to 1 µM.
The next experiment deals with Human thrombin (human, UniProt P00734 328-622). Description: protease inhibition assay, Fab up to 1 µM.
For the next experiment, the target named is Human plasmin (human, UniProt P00747 97-810). Nature of the experiment: protease inhibition assay, Fab up to 1 µM.
Chain of Human plasmin (P00747 97-810 limits assumed): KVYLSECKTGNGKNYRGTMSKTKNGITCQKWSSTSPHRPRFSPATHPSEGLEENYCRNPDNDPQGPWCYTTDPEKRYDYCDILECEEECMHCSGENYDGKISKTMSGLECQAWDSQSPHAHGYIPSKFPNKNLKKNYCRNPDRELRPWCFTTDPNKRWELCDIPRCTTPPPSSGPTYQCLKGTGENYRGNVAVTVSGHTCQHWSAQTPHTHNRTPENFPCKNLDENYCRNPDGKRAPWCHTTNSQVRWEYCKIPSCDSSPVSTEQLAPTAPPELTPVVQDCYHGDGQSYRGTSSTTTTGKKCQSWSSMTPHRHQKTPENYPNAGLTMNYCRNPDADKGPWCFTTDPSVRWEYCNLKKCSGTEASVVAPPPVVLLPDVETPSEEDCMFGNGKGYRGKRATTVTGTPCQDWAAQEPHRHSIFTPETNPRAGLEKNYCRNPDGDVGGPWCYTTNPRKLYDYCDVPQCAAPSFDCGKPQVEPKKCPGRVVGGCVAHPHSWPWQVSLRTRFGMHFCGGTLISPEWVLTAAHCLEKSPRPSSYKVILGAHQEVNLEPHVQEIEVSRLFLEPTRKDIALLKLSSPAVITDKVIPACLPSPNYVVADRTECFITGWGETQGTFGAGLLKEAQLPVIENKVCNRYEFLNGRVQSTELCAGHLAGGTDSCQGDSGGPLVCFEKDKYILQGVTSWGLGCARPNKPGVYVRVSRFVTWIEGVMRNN
The target of another experiment is T2, Human elastase (human, UniProt P08246 30-247).
T2 construct: also called Human Neutrophil Elastase
T2 sequence (looked up): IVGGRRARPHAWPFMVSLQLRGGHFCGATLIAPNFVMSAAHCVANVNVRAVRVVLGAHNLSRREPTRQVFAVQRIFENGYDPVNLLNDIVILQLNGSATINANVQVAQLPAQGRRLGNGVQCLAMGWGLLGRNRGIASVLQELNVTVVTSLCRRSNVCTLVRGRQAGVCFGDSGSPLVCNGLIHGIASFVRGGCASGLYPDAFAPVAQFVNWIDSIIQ
Description: protease inhibition assay, Fab up to 1 µM.

The target in experiment [4] is T3, Human Tissue Kallikrein 8 (hK8) (human, UniProt O60259 33-260).
T3 sequence (looked up): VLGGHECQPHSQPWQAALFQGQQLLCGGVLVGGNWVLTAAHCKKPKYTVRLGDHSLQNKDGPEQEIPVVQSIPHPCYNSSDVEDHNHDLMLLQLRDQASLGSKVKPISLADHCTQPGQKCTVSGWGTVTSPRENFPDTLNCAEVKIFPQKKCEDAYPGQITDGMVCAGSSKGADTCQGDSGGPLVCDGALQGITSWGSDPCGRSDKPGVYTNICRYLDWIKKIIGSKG
Description: protease inhibition assay, Fab up to 1 µM.
Description: as §1, §2

The next experiment addresses Human plasma kallikrein (human, UniProt P03952 20-638). Nature of the experiment: protease inhibition assay, Fab up to 1 µM.
For experiment [5], the target named is Human Tissue Kallikrein 5 (hK5) (human, UniProt Q9Y337 67-293, limits assumed). Description: protease inhibition assay, Fab up to 1 µM.
Chain of Human Tissue Kallikrein 5 (hK5) (Q9Y337 67-293 limits assumed): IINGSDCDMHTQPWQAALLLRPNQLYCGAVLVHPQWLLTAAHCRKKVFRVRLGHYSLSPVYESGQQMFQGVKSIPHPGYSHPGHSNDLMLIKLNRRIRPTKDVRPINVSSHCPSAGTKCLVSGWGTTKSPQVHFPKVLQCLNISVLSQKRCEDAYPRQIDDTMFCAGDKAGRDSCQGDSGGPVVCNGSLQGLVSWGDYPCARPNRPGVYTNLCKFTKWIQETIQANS
Description: as §1, §2
The target in experiment [6] is Human Tissue Kallikrein 3 (hK3, PSA) (human, UniProt P07288 25-261). Description: protease inhibition assay, Fab up to 1 µM.
Chain of Human Tissue Kallikrein 3 (hK3, PSA) (P07288 25-261 limits assumed): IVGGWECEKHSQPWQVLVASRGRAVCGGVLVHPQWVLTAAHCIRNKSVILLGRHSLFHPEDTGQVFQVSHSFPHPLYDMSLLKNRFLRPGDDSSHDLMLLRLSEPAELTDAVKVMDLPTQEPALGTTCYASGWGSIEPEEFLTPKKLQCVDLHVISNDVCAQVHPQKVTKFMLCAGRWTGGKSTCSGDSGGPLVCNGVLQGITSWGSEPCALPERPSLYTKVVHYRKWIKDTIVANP
Description: as §1, §2
In another experiment the target is Human urokinase (human, UniProt P00749 21-431, limits assumed). Nature of the experiment: protease inhibition assay, Fab up to 1 µM.
For experiment [7], the target named is T4, hK1 (human tissue kallikrein 1), recombinant (human, UniProt P06870 25-262). Nature of the experiment: cell-based or functional assay.
Experiment [8] has as its target T4, hK1 (human tissue kallikrein 1), …. Nature of the experiment: SPR.
The target is the same in experiment [9]. Description: SPR, biotinylated hK1 on streptavidin chip; Fab 50 nM after DX-2300 50 nM (competitor DX-2300). A general note: In SPR one partner is held on a chip, and binding of the other changes the refractive index at the surface.
Description: Epitope grouping by SPR. Biotinylated hK1 was captured on a streptavidin coated chip to a final ligand density of 88 RU. […] The signal at the end of the injection of the Fab alone is R2.
The target is the same in experiment [10]. Nature of the experiment: enzyme inhibition, tight-binding analysis, competitive; Fab.
For experiment [11], the target named is kallikrein-like activity in sheep urine (tissue kallikrein, K1) (sheep). Description: cell-based or functional assay.
The target in experiment [12] is T4, hK1 (human tissue kallikrein 1), …. Description: enzyme inhibition, tight-binding analysis, noncompetitive; Fab.

Chain of Human plasma kallikrein (P03952 20-638 limits assumed): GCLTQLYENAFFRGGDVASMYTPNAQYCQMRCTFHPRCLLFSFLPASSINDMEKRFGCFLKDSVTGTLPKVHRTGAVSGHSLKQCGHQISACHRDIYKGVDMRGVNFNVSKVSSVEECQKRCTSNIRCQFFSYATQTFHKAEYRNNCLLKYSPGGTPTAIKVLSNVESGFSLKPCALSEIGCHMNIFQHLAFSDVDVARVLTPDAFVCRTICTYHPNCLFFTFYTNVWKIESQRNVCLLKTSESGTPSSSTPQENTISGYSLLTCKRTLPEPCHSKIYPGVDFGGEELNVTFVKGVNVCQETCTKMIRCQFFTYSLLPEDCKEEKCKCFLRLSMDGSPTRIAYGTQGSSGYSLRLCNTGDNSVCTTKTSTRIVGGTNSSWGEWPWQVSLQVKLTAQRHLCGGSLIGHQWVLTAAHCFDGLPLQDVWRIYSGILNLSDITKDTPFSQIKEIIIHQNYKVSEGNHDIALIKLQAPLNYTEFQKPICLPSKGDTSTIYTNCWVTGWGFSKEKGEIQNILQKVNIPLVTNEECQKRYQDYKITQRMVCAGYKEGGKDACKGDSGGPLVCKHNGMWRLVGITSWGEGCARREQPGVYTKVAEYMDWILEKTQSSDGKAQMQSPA
Chain of Human Tissue Kallikrein 2 (hK2) (P20151 25-261 limits assumed): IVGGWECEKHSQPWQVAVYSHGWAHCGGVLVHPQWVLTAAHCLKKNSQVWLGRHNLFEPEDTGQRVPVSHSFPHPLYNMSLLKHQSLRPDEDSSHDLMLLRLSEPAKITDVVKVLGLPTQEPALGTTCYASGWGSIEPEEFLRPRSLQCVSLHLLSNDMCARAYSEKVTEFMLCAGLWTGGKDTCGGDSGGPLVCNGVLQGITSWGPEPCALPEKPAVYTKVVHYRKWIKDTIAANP
Chain of Human chymotrypsin (P17538 19-263): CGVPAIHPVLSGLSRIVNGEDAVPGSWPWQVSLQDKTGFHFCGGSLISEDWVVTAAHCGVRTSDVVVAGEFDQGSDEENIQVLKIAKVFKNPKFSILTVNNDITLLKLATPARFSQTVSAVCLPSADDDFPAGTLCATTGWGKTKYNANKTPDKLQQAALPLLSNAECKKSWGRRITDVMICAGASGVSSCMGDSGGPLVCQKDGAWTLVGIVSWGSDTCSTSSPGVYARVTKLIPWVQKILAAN
Chain of Human activated protein kinase C (human) (P04070 43-197, chain 1 of 2): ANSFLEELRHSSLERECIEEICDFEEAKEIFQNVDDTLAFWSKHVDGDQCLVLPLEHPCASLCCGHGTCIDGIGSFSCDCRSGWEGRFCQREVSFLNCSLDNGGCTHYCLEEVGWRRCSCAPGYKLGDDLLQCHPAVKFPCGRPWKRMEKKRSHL
Chain of Human activated protein kinase C (human) (P04070 212-461, chain 2 of 2): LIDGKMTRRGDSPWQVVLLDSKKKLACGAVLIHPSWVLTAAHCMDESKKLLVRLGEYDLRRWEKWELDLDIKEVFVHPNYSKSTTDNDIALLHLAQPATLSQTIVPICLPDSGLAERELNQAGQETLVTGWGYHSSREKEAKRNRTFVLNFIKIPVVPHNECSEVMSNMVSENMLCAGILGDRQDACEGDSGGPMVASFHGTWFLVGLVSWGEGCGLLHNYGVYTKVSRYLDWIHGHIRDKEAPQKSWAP
Description for Human chymotrypsin: as §1, §2
Description for Human elastase: as §1, §2
Description for Human plasma kallikrein: as §1, §2
Description for Human plasmin: as §1, §2
Description for Human thrombin: as §1, §2
Description for Human trypsin: as §1, §2
Description for Human urokinase: as §1, §2

B1: M0137-E01 (Fab, V domains shown)
VH: EVQLLESGGGLVQPGGSLRLSCAASGFTFSRYSMTWVRQAPGKGLEWVSSIYPSGGKTTYADSVKGRFTISRDNSKNTLYLQMNSLRAEDTAVYYCASMVAPYYYDSSGYPPAEYFQHWGQGTLVTVSS
VL: AQSELTQPPSASGTPGQRVTISCSGTNSNIGSNSVFWYQQLSGTAAPKVLILRNSQRPSGVSDRFSGSKSGTSASLAISGLRSEDEADYYCATWDDSLRSPVFGGGTKLTVLG
notes: also called M137-E01
Turning to B1, the Ki (in [1]; in the experiment with Human trypsin; in experiment [2]; in experiment [3]; in the experiment with Human chymotrypsin; in the experiment with Human thrombin) was greater than 1000 nM each time. In addition, the Ki (in the experiment with Human plasmin; with Human elastase; in experiment [4]; in the experiment with Human plasma kallikrein; in [5]; in [6]) was greater than 1000 nM in each case. Moreover, the Ki is greater than 1000 nM with Human urokinase and 0.9 nM in [10]. In experiment [7], the “IC50 (nM), inhibition of hK1 hydrolysis of Pro-Phe-Arg-AMC” value is 0.4 nM. Further, the Kd in experiment [8] came to 1.29 nM. Besides, the koff in [8] came to 0.000158 s⁻¹. In addition, in [8], the kon worked out at 123000 M⁻¹ s⁻¹. Moreover, the “Fab Signal following DX-2300 (R1)” value in experiment [9] turned out to be 20.8.

B2: DX-2300 (format not stated) (antibody, V domains shown)
VH: EVQLLESGGGLVQPGGSLRLSCAASGFTFSKYKMVWVRQAPGKGLEWVSSIYPSGGITAYADSVKGRFTISRDNSKNTLYLQMNSLRAEDTAMYYCAKDITPGGGSGFRLPKNYYYYGMDVWGQGTTVTVSS
VL: not shown
For the molecule B2, the “IC50 of kallikrein-like activity in activated urine (Pro-Phe-Arg-AMC)” value in experiment [11] stood at 2.9 nM.

B3: DX-2300 (M0131-F07), Fab (Fab, V domains shown)
VH: EVQLLESGGGLVQPGGSLRLSCAASGFTFSKYKMVWVRQAPGKGLEWVSSIYPSGGITAYADSVKGRFTISRDNSKNTLYLQMNSLRAEDTAMYYCAKDITPGGGSGFRLPKNYYYYGMDVWGQGTTVTVSS
VL: not shown
B3: the Ki (in [1]; in the experiment with Human trypsin; in experiment [2]; in [3]; with Human chymotrypsin; with Human thrombin) was greater than 1000 nM in each case. Besides, the inhibition constant Ki (with Human plasmin; with Human elastase; in [4]; with Human plasma kallikrein; in experiment [5]; in [6]) was greater than 1000 nM throughout. Besides, the Ki with Human urokinase is greater than 1000 nM.

B4: M0093-F09 (Fab, V domains shown)
VH: EVQLLESGGGLVQPGGSLRLSCAASGFTFSDYRMWWVRQAPGKGLEWVSYIVPSGGQTSYADSVKGRFTISRDNSKNTLYLQMNSLRAEDTAVYYCARGSAYQRRTYSSGWYSASGRRGTAEYFQHWGQGTLVTVSS
VL: AQSALTQPASVSGSPGQSITISCTGTSTDDVGGYNYVSWYQQHPGKAPKLMIYDVINRPSGVSNRFSGSKSGNTASLTISGLQAEDEADYYCSSYTSRGTRVFGTGTKVTVLG
notes: also called M093-F09
Consider B4, for which the Ki (in experiment [1]; with Human trypsin; in experiment [2]; with Human chymotrypsin; in the experiment with Human thrombin; with Human plasmin) was greater than 1000 nM each time. Also, the Ki (in the experiment with Human elastase; in [4]; with Human plasma kallikrein; in experiment [5]; in experiment [6]; with Human urokinase) was greater than 1000 nM throughout. Moreover, in experiment [12], the inhibition constant Ki turned out to be 1.9 nM. The “IC50 (nM), inhibition of hK1 hydrolysis of Pro-Phe-Arg-AMC” value in experiment [7] was determined as 2.5 nM. In experiment [8], the Kd was 4.66 nM. Besides, the off-rate (koff) in [8] came out at 0.00279 s⁻¹. Also, the kon in experiment [8] turned out to be 600000 M⁻¹ s⁻¹. In addition, in [9], the “Fab Signal following DX-2300 (R1)” value is 5.9.

Usually Ki stands for the equilibrium dissociation constant of an inhibitor or competing ligand from its target. The Kd is the free concentration of one partner at which half of the binding sites on the other are occupied at equilibrium, for simple one-to-one binding. For orientation: koff means the first-order rate constant of dissociation. As usually defined, the kon is the rate constant with which the complex forms.
